IntAct's records for PubMed 9571151

B1: Tyrosine-protein kinase BTK (Homo sapiens), Q06187 (parent)
chain: MAAVILESIFLKRSQQKKKTSPLNFKKRLFLLTVHKLSYYEYDFERGRRGSKKGSIDVEKITCVETVVPEKNPPPERQIPRRGEESSEMEQISIIERFPYPFQVVYDEGPLYVFSPTEELRKRWIHQLKNVIRYNSDLVQKYHPCFWIDGQYLCCSQTAKNAMGCQILENRNGSLKPGSSHRKTKKPLPPTPEEDQILKKPLPPEPAAAPVSTSELKKVVALYDYMPMNANDLQLRKGDEYFILEESNLPWWRARDKNGQEGYIPSNYVTEAEDSIEMYEWYSKHMTRSQAEQLLKQEGKEGGFIVRDSSKAGKYTVSVFAKSTGDPQGVIRHYVVCSTPQSQYYLAEKHLFSTIPELINYHQHNSAGLISRLKYPVSQQNKNAPSTAGLGYGSWEIDPKDLTFLKELGTGQFGVVKYGKWRGQYDVAIKMIKEGSMSEDEFIEEAKVMMNLSHEKLVQLYGVCTKQRPIFIITEYMANGCLLNYLREMRHRFQTQQLLEMCKDVCEAMEYLESKQFLHRDLAARNCLVNDQGVVKVSDFGLSRYVLDDEYTSSVGSKFPVRWSPPEVLMYSKFSSKSDIWAFGVLMWEIYSLGKMPYERFTNSETAEHIAQGLRLYRPHLASEKVYTIMYSCWHEKADERPTFKILLSNILDVMDEES
partner: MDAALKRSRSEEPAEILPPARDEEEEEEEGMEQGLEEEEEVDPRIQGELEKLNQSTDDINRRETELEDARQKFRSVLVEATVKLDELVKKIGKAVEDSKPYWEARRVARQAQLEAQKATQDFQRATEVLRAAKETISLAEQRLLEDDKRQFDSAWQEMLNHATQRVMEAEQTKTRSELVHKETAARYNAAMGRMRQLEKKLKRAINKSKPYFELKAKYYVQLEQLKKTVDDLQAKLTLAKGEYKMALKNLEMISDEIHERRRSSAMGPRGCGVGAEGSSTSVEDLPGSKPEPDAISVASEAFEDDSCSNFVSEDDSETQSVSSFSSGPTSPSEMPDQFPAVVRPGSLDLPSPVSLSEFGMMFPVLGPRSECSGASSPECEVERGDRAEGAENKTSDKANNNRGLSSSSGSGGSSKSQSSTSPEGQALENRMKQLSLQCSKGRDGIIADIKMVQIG

Variants of: B1
Settings: with 3bp5_human SH3BP5, O60239
In the case of W251L;W252L, the “effect of a mutation on the interaction” value is reported as “decreasing interaction”.
